# B1: X. dendrorhous α-glucosidase (purified enzyme) (Phaffia rhodozyma) (protein)
# chain: SSPSSFQGPSELLSNQKRYSKRDNTGSYSLNTTACGGYSVSSVDSTGNGLQAHLSLNGEPCRAFGVDYTDLLVDVEYQTQERIRVHIYDADKIEFQVPENIFPKPQSDNGLDLNQTDLVFNHQENPFAFWITRRNASDDETPIFDTRPSSKTSVDYPIEPPYGGVEKVNSSTAVPDESGGLVFEAGYLEISSFLPKDANIFGLGEVVATSGFRRNSSATVQTMWARDVGDPENQNMYGDHPIYIETRFNKNGASSSHGVFLLNSEGMDIVLRDEVIEYRPLGGSLDFYFISGPTPIKVIEQYSEISGRSLLHPYWSYGFHLCRWGYDNITQNREIVQSMKDANLPLETFWNDIDWMDTYRNFVPAPNRFEPADYKAFVDELHANNQHYIPIIDAAIGVVTNDTDVYDTFTAGDAANTYIKNPDGSNYIGKVWPGYTVFPDWFQNSTQDWWTEAFINYSQIVEFDGIWIDMNEPSSFCEGSCGSSADLNNITPPFLLPGQPGAVTLIDGTFPEGYNATLWGYSGNLTINGSLTFNSTPPNYGRPDRRSQLSRRVGQGVDVNTPAYEIHNALDKLAISTVSPNATHLNGDIQDIDVHNLFGYMEGIATFNVWNTYKPNKRPFIVSRSTFPGAGTKVAHWLGDNYSTWKYLRYVNQGVLQFQIYGIPMVGADTCGFAGNTDEELCNRWMQLAAFYPFFRNHNIKSALAQEPFRWDSVAEATRNATAIRYALLPYWYTLFYQASSVGTPPIRALFYEFDQEELLSVDAQFLVGRNVLVTGAMYPNITSVEGYLPGGDDEIWRDWYTHEVIKPTSDDGKYDFPAPLGHIPVTIRSGAIFLLHSEPGMTVYDTRESPYSILVSLDKSSEAEGYAFIDDGESFPVTDSREVHLGAAEGKVYGWTSGSYNVGQKLAQVTVLGVKTEPSTVTFNGQAITTGWTYEADLERFVVTGLQGDLNGGWELDWA
# Key:
# [1] = substrate: OC[C@H]1O[C@H](O[C@H]2[C@H](O)[C@@H](O)[C@@H](O[C@H]3[C@H](O)[C@@H](O)C(O)O[C@@H]3CO)O[C@@H]2CO)[C@H](O)[C@@H](O)[C@@H]1O; assay: purified protein, by the assay type; conditions: other: 30 minutes, 100 ng of enzyme; starch supplied by Avebe, 8100 Da
# [2] = substrate: OC[C@H]1O[C@H](O[C@H]2[C@H](O)[C@@H](O)[C@@H](O[C@H]3[C@H](O)[C@@H](O)[C@@H](O[C@H]4[C@H](O)[C@@H](O)[C@@H](O[C@H]5[C@H](O)[C@@H](O)[C@@H](O[C@H]6[C@H](O)[C@@H](O)[C@@H](O[C@H]7[C@H](O)[C@@H](O)C(O)O[C@@H]7CO)O[C@@H]6CO)O[C@@H]5CO)O[C@@H]4CO)O[C@@H]3CO)O[C@@H]2CO)[C@H](O)[C@@H](O)[C@@H]1O; assay: Kinetic constants of X. dendrorhous α-glucosidase glycosylhydrolase activity; type: biochemical, Xanthophyllomyces dendrorhous; conditions: other: 30 minutes, 100 ng of enzyme; starch supplied by Avebe, 8100 Da
# Experimental: The tests were carried out in 30 minutes and with 100 ng of enzyme for each reaction.
protein,measurement,setting,value
B1,Km,[1],0.55 mM
same,kcat,[1],4 s⁻¹
same,kcat/Km,[1],7270 M⁻¹ s⁻¹
same,Km,[2],0.86 mM
same,kcat,[2],5 s⁻¹
same,kcat/Km,[2],5800 M⁻¹ s⁻¹

# Source: patent publication US20090275085A1, “Enzyme for Obtaining Prebiotic Oligosaccharides” (CONSEJO SUPERIOR DE INVESTIGACIONES CIENTIFICAS, priority 2004, published 2009)
